The data set can be described thus: soluble fraction after stress (log2 fold change); higher = more stays soluble; pooled small domains, quantitative proteomics. The following applies: stress: pH 4. The gist of the method:
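How much of each domain stays soluble after acid stress, expressed as a fold change, is used to gauge aggregation propensity. Pooled custom libraries of small domains underwent pH 4 stress before high-throughput quantitative proteomics. A higher log2 value means more of the domain stayed soluble.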
Consider “HMPELSITDADIIVAGGRGMGSAENFGLIRELAGLLGAAVGASRVVVDAEWVDQKHLIGQTGK”, for which the “soluble fraction (log2)” value was -0.507.
Turning to “HMPELTASDEADLKALVGGDQGFEQMANWARSNLGEEEINRFDAVVDSNNKDAIHMAIQAMQARMNA”, the “soluble fraction (log2)” value is -0.394.
The value for “HMPELTERELEVLLLTARGLPSSEAARLLFITRRTVAAHLTSIYGKLGARNKTEAVLAALKRGIIMLDQIG” was -1.46; that for “HMPESYFEMLQKLLETYALPQEGTIYFSAADLARMPQKFEDVIEQTAQKKGGHLVVSKEPKDMDGGFVLV” was -1.62.
The figure for “HMPEVAHTIDMEAVNKHWDELPEREQRILVMRFYGNLTQTEIGERLGISQMHVSRLLARALSHLKSRLLD” is -0.046.
In the case of “HMPEVYPFEVAEDDAGKRLDVFLSEEIEEFTRSFIQKLIAGGLASVNRAPARASYRVKPRDLVELQVPE”, the “soluble fraction (log2)” value is -0.158.
Regarding “HMPFNREYWIEQLLKEVGLMGTPYAELDKHEVELDSPTGRASGFKVNAKTYVDQQLLFIENEYNNQPE”, the “soluble fraction (log2)” value is -0.899.
Consider “HMPFREGDEVFVELVEPHMYNEDDAVAKLDGYVVAVRGAAGLVGQKVLVRIERVGRSSAEATLVA”, for which the “soluble fraction (log2)” value is -0.451.
In the case of “HMPGEIKKIPINSISYQDLKQHPYFDAYLAKQVIKYRETKGRIENIEQFREATRAYQSLIEKVTPYLDFE”, the “soluble fraction (log2)” value was -0.268.
The figure for “HMPGGLSAEDVEKMVEKVLTVNGDVVEEIRSGRDPKGKKIKFLAGLVMRDARGQADAAAVSGILERRLKEG” is 0.371; for “HMPGLITLEAAKTTALNHAKLTADQVTFVKQKLDRDDGRQVYEIEFYTSDYKEYDYEIDAVSGLILEVDYD” it is -0.33; for “HMPGLPLWAFSTRGSAIHTGASFRDGDGLLFGPESRGLPDWLLEEVGQDRVLRLPMRPGSRSLNLSNAV” it is -1.7.
In the case of “HMPGPAEMPGWITARAKKLGGQITPEAARALAAEMGSDTEQASREIEKLLTYVDYRRPVEEEDVALLTA”, the “soluble fraction (log2)” value worked out at 0.00808.
Take “HMPGRKTTFEERLSIIEDLIKHDVNYSWAVDKYHVSYQQVYGWYQKYRKSGNDPQSLRDRRGK”: the “soluble fraction (log2)” value was at least 0.43.
In the case of “HMPGRPSRISDAVKDQIDHDLRKNPRDLGYSQNLWDGKLLSHHLKERYQITLGIRQAQRLFHQLGFRQR”, the “soluble fraction (log2)” value was -0.0409.
The value for “HMPGVLEVDTGGVAAVAYVDGVEVGRVPGELQIAAGTKTLMLKADRYLDYVQSLEIDGLGKRQLLVATLQS” was -0.831.
Regarding “HMPGVTTQLHRLNGTEETYIIKRGDGVLEIDGEKSELQLGDAIIIPAGASQKISNIGDEDLE”, the “soluble fraction (log2)” value is -0.229.
Take “HMPHFFISTSDVNQDIITVSDKENFHHIARVLRSKVGETLLLVDENRTQYKVVIQNIDSKSITTKVVETLK”: the “soluble fraction (log2)” value is -0.697.
Take “HMPHFGVVLQMDDWKTLRDRLEARDDIDWVMKPNLRFEGQPGEQATLFIRDPSGNALEFKGFADLSQVF”: the “soluble fraction (log2)” value is -1.64.
For “HMPHSTTDFSVSPDERQIVYSTNLQGRYDLWALDHNQGYPYPLTKKGQMSFFIKHLPGSQMILTGFD”, the “soluble fraction (log2)” value amounted to 0.0618.
In the case of “HMPIDQAKRKKEIIQNFGIRKIYKFSEIFDLKFGRDNIIVTFLIILDMIKEGVVEINENKEEIEFEYK”, the “soluble fraction (log2)” value is -0.04.
Regarding “HMPIKYTHKGYTINVSRSKMNGTTFVKVVDPKGQVIQQSQDNRIQDVNQLVTTMKQYIDTLKPS”, the “soluble fraction (log2)” value is -0.0336.
“HMPILRDEVYLSIKEAILTGELAPGERISIGRLLPQIGFSPTPIREALLKLEQEGFVSRLQRGGFIVSR”: the “soluble fraction (log2)” value is -0.471.
Turning to “HMPIQLLSEKYMDEHWDELDKDEVSLYQNMSIRFLLKHEDDINWKLYSTNPFISIDTIDFFKDKISWVNI”, the “soluble fraction (log2)” value was -1.45.
Take “HMPKAKASARNDTRTRLLTIGTEVLSQKGFASTGVEEILSVAGVPKGAFYYYFESKAAFGLAVIENYE”: the “soluble fraction (log2)” value was found to be 0.22.
Take “HMPKAMAIMSEIAGTVHIDDTKKSRHVEVTGVDDNGAPVTKSYLIPFGHRLKVMEGDVLVKGALLT”: the “soluble fraction (log2)” value is -0.0288.
For the sequence “HMPKHHIESVIPENFAGERLDKVLAVLWGTFSRAQLTRWIRDGSLLLDGHKVKPNTKVDGSEKIVLQAEVA”, the “soluble fraction (log2)” value is 0.0479.
The value for “HMPKNEHETKAIGNQTGGRVFLFLNTDNINRDYNMYISKQVKFVREISQEYYGKVAVFEDLYGNLWDLIE” was -0.222.
On to “HMPKNRTDYVQDVLKSLGRPAHYKEITQIINAMLPKEAQYSAKSIQVVLGSSPLFIRVGTGTYALVE”, for which the “soluble fraction (log2)” value is -0.79.
For the sequence “HMPKNVEVPNVVGLSLPMAKLRLTQLGLHIVVRDSVWSETGQPNTILDQDPQPGKKIKPESTVYVKVN”, the “soluble fraction (log2)” value was at least 0.43.
Consider “HMPKRYAGPDIIAIYGSDVFFRVGSGDGLMVIPVGRSMDNIEVVSVDAPRSVELMWKDGGPFTVPV”, for which the “soluble fraction (log2)” value was -0.218.
The value for “HMPKSKTPDDAAEEFRTAFSALDMDGKVTVKDMAEYMGVIDKTVYARLKKMGDEFTLDKGVITKKT” was -0.084.
With “HMPKTATIVIDLNYADAKEIVENLQTILAGETKDISVAPHPSANQIIASGDRWEVENISTIIKQLDR”, the “soluble fraction (log2)” value was -1.02.
The value for “HMPKTLTEAAYEDIKQWILEGEITPGSKISLEDTASRLEVSMTPIREALTKLQQEGLVEYIPRAGWRASK” was -0.294.

The values above are taken from the domain aggregation screens of Martell et al. (2025).
